Source: PMC3197237

Columns and labels:
[1] = target: GST-AeIAP1 BIR1 (residues 24-118 of AeIAP1) (A. aegypti); assay: pull-down
[2] = target: GST-AeIAP1 BIR2 (residues 188-278 of AeIAP1) (A. aegypti); assay: pull-down

Row | % of input bound [1] | % of input bound [2] | Substance
1 | 79.9 % of input | 50.2 % of input | activated (cleaved) AeDronc: in vitro translated AeDronc partially processed by active recombinant AeDronc
2 | 70.9 % of input | 45.2 % of input | in vitro translated full length AeDronc (enzyme)
